Consider one substance from article PMC9909341, “TLQP-21 is a low potency partial C3aR activator on human primary macrophages” (Frontiers in Immunology, 2023).

The target in assay [1] is T1, Human complement C3a receptor, stably expressed on CHO cells (human) (UniProt Q16581).
T1 sequence: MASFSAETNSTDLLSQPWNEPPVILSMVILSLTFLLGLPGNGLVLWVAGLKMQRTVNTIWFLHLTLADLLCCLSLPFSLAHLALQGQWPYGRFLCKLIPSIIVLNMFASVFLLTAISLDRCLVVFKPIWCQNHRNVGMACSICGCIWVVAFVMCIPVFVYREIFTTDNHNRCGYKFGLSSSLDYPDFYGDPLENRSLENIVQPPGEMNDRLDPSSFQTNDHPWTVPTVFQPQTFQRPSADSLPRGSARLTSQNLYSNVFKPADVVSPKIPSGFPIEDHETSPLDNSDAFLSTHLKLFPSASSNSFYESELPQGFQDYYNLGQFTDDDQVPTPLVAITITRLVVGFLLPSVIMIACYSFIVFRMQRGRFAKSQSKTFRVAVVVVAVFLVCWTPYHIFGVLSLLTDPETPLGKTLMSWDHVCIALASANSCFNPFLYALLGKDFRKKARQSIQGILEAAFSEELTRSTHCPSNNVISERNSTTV

Assay [2] deals with Endogenous C3aR of CHO-K1 cells (Chinese hamster (endogenous in CHO-K1)).
Assay [3] deals with T2, Human complement C3a receptor, endogenous on human monocyte-derived macrophages (human (endogenous in HMDMs)) (UniProt Q16581).
T2 sequence: T1 sequence

The target in assay [4] is T1, Human complement C3a receptor, stably expressed on CHO cells (human). This is another data set of the same source.
The target of assay [5] is T2, Human complement C3a receptor, endogenous on human monocyte-derived macrophages (human (endogenous in HMDMs)). The source holds these as a separate data set.

For “Human C3a (from UniProt P01024 672-748) (ligand)”, the relative efficacy of C3a-induced ERK signalling in CHO-C3aR cells, fold baseline (fold baseline) in assay [1] is 7.3. For the same substance, the relative efficacy of C3a-induced ERK signalling in CHO-K1 cells, fold baseline (fold baseline) in assay [2] amounted to 2.7. In assay [3], the C3a-induced ERK signalling in HMDMs pre-treated with the C3aR antagonist SB290157, % of the untreated level (% of the untreated level) was less than 20. In assay [4], this substance yielded an EC50 (nM) of ERK1/2 phosphorylation in CHO-C3aR cells of 0.15 nM. The EC50 (nM) of ERK1/2 phosphorylation in HMDMs in assay [5] is 0.11 nM.
